In patent publication US8536118B2, “Methods and compositions for modulating hyperstabilized c-met” (Genentech, Inc., priority 2005, dated 2013):

Columns and labels:
H596 cells = assay: Growth inhibition assay (Celltiter-Glo cell viability, 72 hrs, HGF stimulation); type: cell-based, human; conditions: with or without 50 ng/ml rhuHGF, FIG. 4B
Description: (§1) To examine the prolonged signaling in H226, H596, H358, or Rat 1A-Met stable clones, the cells were rinsed with PBS then serum-starved in RPMI or DMEM media containing 0.5% BSA, 2 mM glutamine, and penicillin/streptomycin for one hour. rhuHGF or the agonistic anti-Met monoclonal antibody, 3D6 (Genentech), was added to the serum-free media for 10 minutes. The monolayer of cells was then rinsed with PBS and incubated with serum-free media until their extraction at the indicated times. Cells were then rinsed once with PBS, lysed with 1×SDS sample buffer containing 1×DTT (Invitrogen), sonicated briefly, and boiled for 5 minutes. […] Boiled samples were analyzed by SDS-PAGE and immunoblotted with P-Met (Y1230/Y1234/Y1235, BioSource), P-Met (Y1234/Y1235), Met (DL-21), P-MAPK (E10, Cell Signaling), P-MAPK (Cell Signaling), P-Akt (587F11, Cell Signaling), or Akt (Cell Signaling). […] Proteins transferred onto nitrocellulose membranes were detected by infrared scan using Odyssey (LiCor) according to the manufacturer's recommended western blotting instructions followed by quantification. […] After 72 hrs, cell viability was measured using the Celltiter-Glo Luminescent Cell Viability Assay (Promega). Stimulation indices were determined by dividing the average cell viability units of HGF-stimulated cultures by the average cell viability units of unstimulated cultures. […]

Met receptor = Met receptor (Homo sapiens, UniProt P08581, DEL964-1010); assay: Met receptor inhibition in serum-starved, rhuHGF-stimulated cells, immunoblot with infrared quantification; type: cell-based; conditions: H596 cells (Met exon 14 deletion), antibody 30 minutes, then 100 ng/ml rhuHGF; FIGS. 4A, 6
Description: as §1

B1: OA-5D5: known anti-c-met inhibitor; antibody of intact light chain, heavy chain and N-terminally truncated heavy chain comprising an Fc portion (antibody, V domains shown)
VH: EVQLVESGGGLVQPGGSLRLSCAASGYTFTSYWLHWVRQAPGKGLEWVGMIDPSNSDTRFNPNFKDRFTISADTSKNTAYLQMNSLRAEDTAVYYCATYRSYVTPLDYWGQGTLVTVSS
VL: DIQMTQSPSSLSASVGDRVTITCKSSQSLLYTSSQKNYLAWYQQKPGKAPKLLIYWASTRESGVPSRFSGSGSGTDFTLTISSLQPEDFATYYCQQYYAYPWTFGQGTKVEIK
modifications: constant regions; truncated heavy chain Fc; Sequence is synthesized
notes: antibody of intact light chain, heavy chain and N-terminally truncated heavy chain comprising an Fc portion
H596 cells
  cell proliferation (cell viability): dose-dependent inhibition of cell proliferation in a ligand-dependent manner
Met receptor
  MAPK phosphorylation: decreased with the addition of anti-Met OA-5D5 in a dose-dependent manner
  Met phosphorylation: decreased with the addition of anti-Met OA-5D5 in a dose-dependent manner
